The record followed here is paper PMC6595482 (Molecular microbiology, 2018).

This assay has as its target E. coli RNA polymerase (E. coli) (UniProt P0A7Z4).

E. coli RNA polymerase (E. coli), sequence (P0A7Z4 whole entry, looked up): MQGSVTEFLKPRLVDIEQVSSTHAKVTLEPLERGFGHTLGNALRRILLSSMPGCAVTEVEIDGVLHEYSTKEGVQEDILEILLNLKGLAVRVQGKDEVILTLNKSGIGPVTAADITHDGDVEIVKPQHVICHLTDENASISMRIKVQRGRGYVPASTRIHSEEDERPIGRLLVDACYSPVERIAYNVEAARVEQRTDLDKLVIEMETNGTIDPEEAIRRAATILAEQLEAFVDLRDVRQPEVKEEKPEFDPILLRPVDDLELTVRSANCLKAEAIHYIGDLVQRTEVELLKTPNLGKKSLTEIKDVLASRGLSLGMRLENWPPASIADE

B1: Escherichia coli RfaH (natural protein)
chain: MQSWYLLYCKRGQLQRAQEHLERQAVNCLAPMITLEKIVRGKRTAVSEPLFPNYLFVEFDPEVIHTTTINATRGVSHFVRFGASPAIVPSAVIHQLSVYKPKDIVDPATPYPGDKVIITEGAFEGFQAIFTEPDGEARSMLLLNLINKEIKHSVKNTEFRKL
B1 gave an Exo III footprinting of the upstream boundary of the ops TEC (100 nM RfaH) of 7 nt.
